Data from US20250295737A1 (AstraZeneca / MedImmune, published 2025).

T1: mouse RXFP1 (mouse, UniProt Q6R6I7 1-758)
T1 sequence (looked up): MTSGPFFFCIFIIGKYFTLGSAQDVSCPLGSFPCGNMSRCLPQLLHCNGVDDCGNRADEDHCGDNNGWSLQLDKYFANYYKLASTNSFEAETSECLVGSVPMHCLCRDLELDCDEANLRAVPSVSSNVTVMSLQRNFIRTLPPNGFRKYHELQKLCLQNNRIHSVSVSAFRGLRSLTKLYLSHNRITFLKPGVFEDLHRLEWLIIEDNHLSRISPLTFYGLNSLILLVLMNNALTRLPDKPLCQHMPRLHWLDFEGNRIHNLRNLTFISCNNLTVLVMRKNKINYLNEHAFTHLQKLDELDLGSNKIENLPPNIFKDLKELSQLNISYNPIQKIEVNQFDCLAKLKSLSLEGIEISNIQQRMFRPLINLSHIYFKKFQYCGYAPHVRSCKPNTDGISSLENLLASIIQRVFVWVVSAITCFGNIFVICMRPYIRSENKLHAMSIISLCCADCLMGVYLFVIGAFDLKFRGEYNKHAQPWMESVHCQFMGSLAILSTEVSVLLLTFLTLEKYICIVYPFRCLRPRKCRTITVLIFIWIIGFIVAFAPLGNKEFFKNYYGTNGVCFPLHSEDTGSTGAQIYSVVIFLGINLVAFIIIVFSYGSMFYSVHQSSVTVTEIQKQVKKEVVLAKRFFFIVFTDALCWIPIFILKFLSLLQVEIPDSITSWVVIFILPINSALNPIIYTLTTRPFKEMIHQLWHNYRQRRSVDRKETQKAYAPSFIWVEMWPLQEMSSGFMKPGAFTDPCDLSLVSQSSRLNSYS

T2: human RXFP1 (human, UniProt Q9HBX9 1-757)
T2 sequence (looked up): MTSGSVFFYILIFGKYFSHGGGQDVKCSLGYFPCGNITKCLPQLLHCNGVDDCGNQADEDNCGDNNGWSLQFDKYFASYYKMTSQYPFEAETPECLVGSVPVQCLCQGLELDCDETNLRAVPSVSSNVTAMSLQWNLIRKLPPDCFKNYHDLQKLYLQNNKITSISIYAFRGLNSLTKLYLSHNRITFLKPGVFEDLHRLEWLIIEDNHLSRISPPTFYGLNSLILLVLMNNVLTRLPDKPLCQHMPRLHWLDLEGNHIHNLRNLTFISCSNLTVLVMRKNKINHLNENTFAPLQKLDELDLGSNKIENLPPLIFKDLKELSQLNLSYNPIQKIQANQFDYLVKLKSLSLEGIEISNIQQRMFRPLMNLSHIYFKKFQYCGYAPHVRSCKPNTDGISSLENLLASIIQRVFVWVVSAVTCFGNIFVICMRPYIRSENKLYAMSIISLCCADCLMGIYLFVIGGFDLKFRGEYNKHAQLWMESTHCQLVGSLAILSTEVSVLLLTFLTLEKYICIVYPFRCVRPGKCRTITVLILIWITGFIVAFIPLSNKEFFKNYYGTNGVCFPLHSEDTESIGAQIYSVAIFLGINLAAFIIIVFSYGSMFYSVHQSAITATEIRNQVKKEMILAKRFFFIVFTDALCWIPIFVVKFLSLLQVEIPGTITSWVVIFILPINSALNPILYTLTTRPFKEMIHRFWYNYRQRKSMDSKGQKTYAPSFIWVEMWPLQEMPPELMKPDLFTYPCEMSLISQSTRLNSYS


Tests used:
Test in all cases: cell-based or functional assay
[1] = biological target: T1, mouse RXFP1
[2] = biological target: T2, human RXFP1
[3] = biological target: human RXFP2 (human, UniProt Q8WXD0 1-754)
Chain of human RXFP2 (Q8WXD0 whole entry): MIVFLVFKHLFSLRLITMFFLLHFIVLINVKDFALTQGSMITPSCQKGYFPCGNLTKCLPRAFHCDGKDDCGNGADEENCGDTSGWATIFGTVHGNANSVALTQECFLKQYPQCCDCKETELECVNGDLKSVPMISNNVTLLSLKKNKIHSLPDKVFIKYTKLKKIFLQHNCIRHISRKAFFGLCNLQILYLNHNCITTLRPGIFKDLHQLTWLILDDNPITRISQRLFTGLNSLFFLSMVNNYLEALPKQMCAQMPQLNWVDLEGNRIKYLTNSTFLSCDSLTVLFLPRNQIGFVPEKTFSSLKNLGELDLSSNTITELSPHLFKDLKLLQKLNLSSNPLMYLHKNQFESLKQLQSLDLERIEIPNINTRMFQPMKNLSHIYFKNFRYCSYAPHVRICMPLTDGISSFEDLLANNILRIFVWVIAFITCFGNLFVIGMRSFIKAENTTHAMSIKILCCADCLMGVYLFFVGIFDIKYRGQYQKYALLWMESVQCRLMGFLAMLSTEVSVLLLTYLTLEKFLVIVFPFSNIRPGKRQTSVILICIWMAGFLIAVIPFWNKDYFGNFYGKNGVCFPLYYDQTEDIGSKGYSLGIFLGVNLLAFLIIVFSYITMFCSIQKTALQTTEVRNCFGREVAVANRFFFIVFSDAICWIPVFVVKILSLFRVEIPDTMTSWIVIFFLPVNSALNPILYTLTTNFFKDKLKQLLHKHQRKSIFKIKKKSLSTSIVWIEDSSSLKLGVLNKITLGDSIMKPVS

| EC50 mRXFP1 (M), cAMP HTRF assay [1] | EC50 hRXFP1 (M), cAMP HTRF assay [2] | EC50 hRXFP2 (M), cAMP HTRF assay [3] | Binder |
| --- | --- | --- | --- |
| 3.48e-11 M | 5.34e-11 M | 1.2e-08 M | RELAX0084 (Fc fusion) chain 1: DKTHTCPPCPAPEFEGGPSVFLFPPKPKDTLMISRTPEVTCVVVDVSHEDPEVKFNWYVDGVEVHNAKTKPREEQYNSTYRVVSVLTVLHQDWLNGKEYKCKVSNKALPASIEKTISKAKGQPREPQVYTLPPCREEMTKNQVSLWCLVKGFYPSDIAVEWESNGQPENNYKTTPPVLDSDGSFFLYSKLTVDKSRWQQGNVFSCSVMHEALHNHYTQKSLSLSPGAPAPAPAPAPAPAPAPAPAGSQLYSALANKCCHVGCTKRSLARFC chain 2: DKTHTCPPCPAPEFEGGPSVFLFPPKPKDTLMISRTPEVTCVVVDVSHEDPEVKFNWYVDGVEVHNAKTKPREEQYNSTYRVVSVLTVLHQDWLNGKEYKCKVSNKALPASIEKTISKAKGQPREPQVCTLPPSREEMTKNQVSLSCAVKGFYPSDIAVEWESNGQPENNYKTTPPVLDSDGSFFLVSKLTVDKSRWQQGNVFSCSVMHEALHNHYTQKSLSLSPGGGGGSGGGGSGGGGSGGGGGSSWMEEVIKLCGRELVRAQIAICGMSTWS |
| 2.68e-11 M | 4.49e-11 M | 4.88e-08 M | RELAX0086 (Fc fusion) chain 1: DKTHTCPPCPAPEFEGGPSVFLFPPKPKDTLMISRTPEVTCVVVDVSHEDPEVKFNWYVDGVEVHNAKTKPREEQYNSTYRVVSVLTVLHQDWLNGKEYKCKVSNKALPASIEKTISKAKGQPREPQVYTLPPCREEMTKNQVSLWCLVKGFYPSDIAVEWESNGQPENNYKTTPPVLDSDGSFFLYSKLTVDKSRWQQGNVFSCSVMHEALHNHYTQKSLSLSPGGGGGSGGGGSGGGGGSQLYSALANKCCHVGCTKRSLARFC chain 2: DKTHTCPPCPAPEFEGGPSVFLFPPKPKDTLMISRTPEVTCVVVDVSHEDPEVKFNWYVDGVEVHNAKTKPREEQYNSTYRVVSVLTVLHQDWLNGKEYKCKVSNKALPASIEKTISKAKGQPREPQVCTLPPSREEMTKNQVSLSCAVKGFYPSDIAVEWESNGQPENNYKTTPPVLDSDGSFFLVSKLTVDKSRWQQGNVFSCSVMHEALHNHYTQKSLSLSPGGGGGSGGGGSGGGGSGGGGGSSWMEEVIKLCGRELVRAQIAICGMSTWS |
| 3.09e-11 M | 6.37e-11 M | 4.67e-08 M | RELAX0085 (Fc fusion) chain 1: DKTHTCPPCPAPEFEGGPSVFLFPPKPKDTLMISRTPEVTCVVVDVSHEDPEVKFNWYVDGVEVHNAKTKPREEQYNSTYRVVSVLTVLHQDWLNGKEYKCKVSNKALPASIEKTISKAKGQPREPQVYTLPPCREEMTKNQVSLWCLVKGFYPSDIAVEWESNGQPENNYKTTPPVLDSDGSFFLYSKLTVDKSRWQQGNVFSCSVMHEALHNHYTQKSLSLSPGGGGGSGGGGSGGGGSGGGGGSQLYSALANKCCHVGCTKRSLARFC chain 2: DKTHTCPPCPAPEFEGGPSVFLFPPKPKDTLMISRTPEVTCVVVDVSHEDPEVKFNWYVDGVEVHNAKTKPREEQYNSTYRVVSVLTVLHQDWLNGKEYKCKVSNKALPASIEKTISKAKGQPREPQVCTLPPSREEMTKNQVSLSCAVKGFYPSDIAVEWESNGQPENNYKTTPPVLDSDGSFFLVSKLTVDKSRWQQGNVFSCSVMHEALHNHYTQKSLSLSPGAPAPAPAPAPAPAPAPAPAGSSWMEEVIKLCGRELVRAQIAICGMSTWS |
| 3.87e-11 M | 8.09e-11 M | 1.22e-07 M | RELAX0107 (Fc fusion) chain 1: DKTHTCPPCPAPEFEGGPSVFLFPPKPKDTLMISRTPEVTCVVVDVSHEDPEVKFNWYVDGVEVHNAKTKPREEQYNSTYRVVSVLTVLHQDWLNGKEYKCKVSNKALPASIEKTISKAKGQPREPQVYTLPPCREEMTKNQVSLWCLVKGFYPSDIAVEWESNGQPENNYKTTPPVLDSDGSFFLYSKLTVDKSRWQQGNVFSCSVMHEALHNHYTQKSLSLSPGGGGGGSQLYSALANKCCHVGCTKRSLARFC chain 2: DKTHTCPPCPAPEFEGGPSVFLFPPKPKDTLMISRTPEVTCVVVDVSHEDPEVKFNWYVDGVEVHNAKTKPREEQYNSTYRVVSVLTVLHQDWLNGKEYKCKVSNKALPASIEKTISKAKGQPREPQVCTLPPSREEMTKNQVSLSCAVKGFYPSDIAVEWESNGQPENNYKTTPPVLDSDGSFFLVSKLTVDKSRWQQGNVFSCSVMHEALHNHYTQKSLSLSPGAPAPAPAPAPAPAPAPAPAGSSWMEEVIKLCGRELVRAQIAICGMSTWS |
| 3.48e-11 M | 4.89e-11 M | 3.63e-08 M | RELAX0087 (Fc fusion) chain 1: DKTHTCPPCPAPEFEGGPSVFLFPPKPKDTLMISRTPEVTCVVVDVSHEDPEVKFNWYVDGVEVHNAKTKPREEQYNSTYRVVSVLTVLHQDWLNGKEYKCKVSNKALPASIEKTISKAKGQPREPQVYTLPPCREEMTKNQVSLWCLVKGFYPSDIAVEWESNGQPENNYKTTPPVLDSDGSFFLYSKLTVDKSRWQQGNVFSCSVMHEALHNHYTQKSLSLSPGGGGGSGGGGSGGGGSGGGGGSQLYSALANKCCHVGCTKRSLARFC chain 2: DKTHTCPPCPAPEFEGGPSVFLFPPKPKDTLMISRTPEVTCVVVDVSHEDPEVKFNWYVDGVEVHNAKTKPREEQYNSTYRVVSVLTVLHQDWLNGKEYKCKVSNKALPASIEKTISKAKGQPREPQVCTLPPSREEMTKNQVSLSCAVKGFYPSDIAVEWESNGQPENNYKTTPPVLDSDGSFFLVSKLTVDKSRWQQGNVFSCSVMHEALHNHYTQKSLSLSPGGGGGSGGGGSGGGGGSSWMEEVIKLCGRELVRAQIAICGMSTWS |
| 1.98e-11 M | 6.96e-11 M | 4.94e-08 M | RELAX0106 (Fc fusion) chain 1: DKTHTCPPCPAPEFEGGPSVFLFPPKPKDTLMISRTPEVTCVVVDVSHEDPEVKFNWYVDGVEVHNAKTKPREEQYNSTYRVVSVLTVLHQDWLNGKEYKCKVSNKALPASIEKTISKAKGQPREPQVYTLPPCREEMTKNQVSLWCLVKGFYPSDIAVEWESNGQPENNYKTTPPVLDSDGSFFLYSKLTVDKSRWQQGNVFSCSVMHEALHNHYTQKSLSLSPGGGGGSGGGGGSQLYSALANKCCHVGCTKRSLARFC chain 2: DKTHTCPPCPAPEFEGGPSVFLFPPKPKDTLMISRTPEVTCVVVDVSHEDPEVKFNWYVDGVEVHNAKTKPREEQYNSTYRVVSVLTVLHQDWLNGKEYKCKVSNKALPASIEKTISKAKGQPREPQVCTLPPSREEMTKNQVSLSCAVKGFYPSDIAVEWESNGQPENNYKTTPPVLDSDGSFFLVSKLTVDKSRWQQGNVFSCSVMHEALHNHYTQKSLSLSPGAPAPAPAPAPAPAPAPAPAGSSWMEEVIKLCGRELVRAQIAICGMSTWS |
| 1.49e-11 M | 7.12e-11 M | 3.33e-08 M | RELAX0105 (Fc fusion) chain 1: DKTHTCPPCPAPEFEGGPSVFLFPPKPKDTLMISRTPEVTCVVVDVSHEDPEVKFNWYVDGVEVHNAKTKPREEQYNSTYRVVSVLTVLHQDWLNGKEYKCKVSNKALPASIEKTISKAKGQPREPQVYTLPPCREEMTKNQVSLWCLVKGFYPSDIAVEWESNGQPENNYKTTPPVLDSDGSFFLYSKLTVDKSRWQQGNVFSCSVMHEALHNHYTQKSLSLSPGGGGGSGGGGSGGGGGSQLYSALANKCCHVGCTKRSLARFC chain 2: DKTHTCPPCPAPEFEGGPSVFLFPPKPKDTLMISRTPEVTCVVVDVSHEDPEVKFNWYVDGVEVHNAKTKPREEQYNSTYRVVSVLTVLHQDWLNGKEYKCKVSNKALPASIEKTISKAKGQPREPQVCTLPPSREEMTKNQVSLSCAVKGFYPSDIAVEWESNGQPENNYKTTPPVLDSDGSFFLVSKLTVDKSRWQQGNVFSCSVMHEALHNHYTQKSLSLSPGAPAPAPAPAPAPAPAPAPAGSSWMEEVIKLCGRELVRAQIAICGMSTWS |
